The assay has as its target UCART19 CAR (anti-CD19 chimeric antigen receptor with a 4G7-derived scFv, on UCART19 cells). Nature of the assay: flow cytometry blocking assay: fresh UCART19 cells pre-incubated with unconjugated antibody, then stained with labelled soluble CD19-hFc; ligand: m14.

Sequence of UCART19 CAR (anti-CD19 chimeric antigen receptor with a 4G7-derived scFv, on UCART19 cells) (chain, as listed by the source mutant): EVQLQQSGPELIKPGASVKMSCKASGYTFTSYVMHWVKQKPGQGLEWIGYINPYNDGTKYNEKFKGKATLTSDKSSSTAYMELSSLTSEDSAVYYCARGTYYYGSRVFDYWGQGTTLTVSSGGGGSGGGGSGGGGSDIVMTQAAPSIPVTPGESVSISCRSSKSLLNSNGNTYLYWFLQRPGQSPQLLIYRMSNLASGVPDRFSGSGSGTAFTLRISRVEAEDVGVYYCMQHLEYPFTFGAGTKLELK

On to Isotype Control (antibody), for which the CAR+ (% cells stained by APC-sCD19) at 0.2 µg/mL antibody worked out at 52.4%, the CAR+ (% cells stained by APC-sCD19) at 0.39 µg/mL antibody is 52.9%, the CAR+ (% cells stained by APC-sCD19) at 0.78 µg/mL antibody is 53.4% and the CAR+ (% cells stained by APC-sCD19) at 1.56 µg/mL antibody was found to be 52.7%. For the same substance, the CAR+ (% cells stained by APC-sCD19) at 3.125 µg/mL antibody turned out to be 52.9%, the CAR+ (% cells stained by APC-sCD19) at 6.25 µg/mL antibody was determined as 52.6%, the CAR+ (% cells stained by APC-sCD19) at 12.5 µg/mL antibody came to 52.3% and the CAR+ (% cells stained by APC-sCD19) at 25 µg/mL antibody was found to be 52%. The CAR+ (% cells stained by APC-sCD19) at 50 µg/mL antibody is 53.3% and the CAR+ (% cells stained by APC-sCD19) at 100 µg/mL antibody was 54.8%.

Source of the values: patent publication US20200331998A1.
